Laboratory results from patent publication US5534260A, “Percutaneous drug delivery system” (priority 1994, dated 1996).
Entries after “also recorded” stand apart in the source; their conditions may differ.

Key:
[1] = Enhancement of acetylcholine chloride penetration through hairless mouse skin at pH 7.4 (Example III); assay type: in vitro ADME
Procedure: A percutaneous permeation enhancer having the following formula was prepared: […]
The effect of the percutaneous enhancer, as prepared in Example II above, was measured on the penetration of the quaternary compound acetylcholine chloride through hairless mouse skin at pH 7.4. […] The data below indicates a potentiating or synergistic effect in combining the agents for use as an enhancer.
Enhancement effect of 0.0465 mg/ml Sigma papain alone and in
combination with 2% Azone™ and 15% propylene glycol on the
penetration of acetylcholine chloride through hairless mouse

[2] = Fourier Transform Infrared spectroscopy of stratum corneum; design: species or system mouse; conditions: for Absorbance in protein areas, peak position: Table I; for FTIR peak, Amide III / FTIR peak, Shoulder Beta sheet / FTIR peak, Alpha helix peak: Table IV; for FTIR peak, Amide III: untreated 1244; for FTIR peak, Shoulder Beta sheet: untreated 1267; for FTIR peak, Alpha helix peak: untreated 1295; for Symmetric CH peak position / Asymmetric CH peak position: Table V; for Symmetric CH peak position: normal SC 2848.3; for Asymmetric CH peak position: normal SC 2916.5; for Length of 70% line, symmetric line / Length of 70% line, asymmetric line: Table VI; for Length of 70% line, symmetric line: normal SC 8.6; for Length of 70% line, asymmetric line: normal SC 17.5
Procedure: A. Comparisons of normal stratum corneum (from mouse skin) to stratum corneum treated with a 0.09% concentration of papain for 24 hours was performed using Fourier Transform Infrared spectroscopy (FTIR). […] It is postulated that a shift from a random form of protein to the more organized beta sheet structure occurs. The alpha-helix structures of skin protein could be fractionated, uncoiled, or both.
A comparison of symmetric and asymmetric CH stretch bands was then made. These two bands represent lipid structure and would show any changes in the stratum corneum lipids caused by the papain.
B. Azone™ was tested as a permeation enhancer with and without the presence of papain.

[3] = Skin damage / irritation by papain pretreatment; conditions: in words
[4] = Effect of non-enzyme components in admixture with papain on penetration of 14C-TEAB (Example IV)
[5] = acetylcholine chloride, pH 7.4, pretreated skin
[6] = 14C-TEAB through pretreated skin (n = 1 for components alone, n = 2 combinations, n = 3 papain 0.0465 mg/ml 24 hours)

B1: papain: proteolytic enzyme; preferred enzyme, readily available from Sigma Chemical Company (protein, UniProt P00784 134-345, looked up)
Papain: IPEYVDWRQKGAVTPVKNQGSCGSCWAFSAVVTIEGIIKIRTGNLNEYSEQELLDCDRRSYGCNGGYPWSALQLVAQYGIHYRNTYPYEGVQRYCRSREKGPYAAKTDGVRQVQPYNEGALLYSIANQPVSVVLEAAGKDFQLYRGGIFVGPCGNKVDHAVAAVGYGPNYILIKNSWGTGWGENGYIRIKRGTGNSYGVCGLYTSSFYPVKN
[1]; acetylcholine chloride, pH 7.4
  E (enhancement effect): 88.4
[1]; [5]
  J (flux): 5.67 × 10^-4 mg/cm^2 /sec
  P (permeability): 2.83 ×10⁻⁶ cm/s
[1]; pH 7.4, pretreatment
  increase in penetration of acetylcholine chloride: eighty-eight
[2]; 24 hours
  recovery after removal of papain: partial recovery
[2]; 48 hours
  recovery after removal of papain: nearly complete recovery
[2]; untreated SC 1244
  Absorbance in protein areas, peak position: 1236.6 cm⁻¹
[2]; untreated SC 1267
  Absorbance in protein areas, peak position: 1263.7 cm⁻¹
[2]; untreated SC 1295
  Absorbance in protein areas, peak position: 1288.4 cm⁻¹
[2]; untreated SC 1400.5
  Absorbance in protein areas, peak position: 1403.8 cm⁻¹
[2]; untreated SC 1456
  Absorbance in protein areas, peak position: 1464.7 cm⁻¹
[2]; Table II, untreated 2848.3
  Absorbance in lipid areas, symmetric CH peak position: 2850 cm⁻¹
[2]; Table II, untreated 2916.5
  Absorbance in lipid areas, asymmetric CH peak position: 2920 cm⁻¹
[2]; Table III, untreated 8.6
  Length of the 70% line, symmetric CH: 9.1 cm⁻¹
[2]; Table III, untreated 17.5
  Length of the 70% line, asymmetric CH: 17.5 cm⁻¹
[2]; 24 hr recovery after papain
  FTIR peak, Amide III: 1242.4 cm⁻¹
  FTIR peak, Shoulder Beta sheet: 1271.8 cm⁻¹
  FTIR peak, Alpha helix peak: 1301.7 cm⁻¹
[2]; 48 hr recovery after papain
  FTIR peak, Amide III: 1243.2 cm⁻¹
  FTIR peak, Shoulder Beta sheet: 1268.4 cm⁻¹
  FTIR peak, Alpha helix peak: 1296.5 cm⁻¹
[2]; papain treated
  FTIR peak, Amide III: 1236 cm⁻¹
  FTIR peak, Shoulder Beta sheet: 1262 cm⁻¹
  FTIR peak, Alpha helix peak: 1288 cm⁻¹
[2]; 48 hr recovery SC
  Symmetric CH peak position: 2849.3 cm⁻¹
  Asymmetric CH peak position: 2916.5 cm⁻¹
  Length of 70% line, symmetric line: 10.5 cm⁻¹
  Length of 70% line, asymmetric line: 19.3 cm⁻¹
[2]; papain treated SC
  Symmetric CH peak position: 2848.5 cm⁻¹
  Asymmetric CH peak position: 2916.3 cm⁻¹
  Length of 70% line, symmetric line: 9.1 cm⁻¹
  Length of 70% line, asymmetric line: 17.5 cm⁻¹
[2]; in words
  change in lipid structure / CH stretch bands of stratum corneum: no change in lipid structure
  change in protein FTIR areas of stratum corneum: significant changes occurring in the amide III, beta sheet, and alpha-helix formations of the stratum corneum cells
pH 7.4
  drug penetration: greater drug penetration
Skin pretreated with papain
  increase in absorption of TEAB: 3,346%
[3]
  skin damage / irritation: increased damage to the skin and can cause bleeding; also recorded: damage the skin, possibly leading to bleeding
[4]; [6]
  J (flux): (1.33 ± 0.48) × 10^-4 mg cm^-2 s^-1
  P (permeability): (1.63 ± 0.59) × 10^-7 cm s^-1
[4]; 14C-TEAB, n = 1 components alone, n = 2 combinations, n = 3 papain
  E (enhancement effect): 32.93
